Reference: patent US20230140293A1

What was measured:
[1] = biological target: CH505 M5 gp120 (HIV-1); assay: ELISA, gp120 on plate
[2] = biological target: CH505 M11 gp120 (HIV-1); assay: ELISA, gp120 on plate
[3] = biological target: CH505 w020.14 gp120 (HIV-1); assay: ELISA, gp120 on plate
[4] = biological target: CH505 transmitted/founder (TF) gp120 (HIV-1); assay: ELISA, gp120 on plate
[5] = biological target: CH505 w030.28 gp120 (HIV-1); assay: ELISA, gp120 on plate
[6] = biological target: CH0505TF.gly3.197 Env, pseudotyped virus produced in 293S GnTI- cells (HIV-1); assay: cell-based or functional assay
[7] = biological target: CH0505TF.gly3.461 Env, Env-pseudotyped virus produced in 293T cells (HIV-1); assay: cell-based or functional assay
[8] = biological target: HIV-1 Env 426c.SM (N276D), Env-pseudotyped virus produced in 293T cells (HIV-1 clade C strain 426c); assay: cell-based or functional assay
[9] = biological target: HIV-1 Env 426c.DM (N460D.N463D), Env-pseudotyped virus produced in 293S GnTI- cells (Man5-enriched) (HIV-1 clade C strain 426c); assay: cell-based or functional assay
[10] = biological target: CH0505TF.gly3.197 Env, Env-pseudotyped virus produced in 293T cells (HIV-1); assay: cell-based or functional assay
[11] = biological target: CH0505TF.gly3.276 Env, Env-pseudotyped virus produced in 293T cells (HIV-1); assay: cell-based or functional assay
[12] = biological target: HIV-1 426c.SM (N276D) Env on Env-pseudotyped virus produced in 293s/GnTI-/- cells (Man5-enrichment) (HIV-1); assay: cell-based or functional assay
[13] = biological target: CH0505TF.gly4 Env, pseudotyped virus produced in 293S GnTI- cells (HIV-1); assay: cell-based or functional assay
[14] = biological target: HIV-1 Env 426c.TM4 (S278R.G471S.N460D.N463D), Env-pseudotyped virus produced in 293T cells (HIV-1 clade C strain 426c); assay: cell-based or functional assay
[15] = biological target: HIV-1 Env 426c.DM (N460D.N463D), Env-pseudotyped virus produced in 293T cells (HIV-1 clade C strain 426c); assay: cell-based or functional assay
[16] = biological target: HIV-1 Env 426c.TM4 (S278R.G471S.N460D.N463D), Env-pseudotyped virus produced in 293S GnTI- cells (Man5-enriched) (HIV-1 clade C strain 426c); assay: cell-based or functional assay
[17] = biological target: CH0505TF.gly3.276 Env, pseudotyped virus produced in 293S GnTI- cells (HIV-1); assay: cell-based or functional assay
[18] = biological target: CH0505TF.gly4 Env, Env-pseudotyped virus produced in 293T cells (HIV-1); assay: cell-based or functional assay
[19] = biological target: CH0505TF Env, Env-pseudotyped virus produced in 293T cells (HIV-1); assay: cell-based or functional assay
[20] = biological target: HIV-1 426c.TM (N276D/N460D/N463D) Env on Env-pseudotyped virus produced in 293s/GnTI-/- cells (Man5-enrichment) (HIV-1); assay: cell-based or functional assay
[21] = biological target: HIV-1 Env 426c, Env-pseudotyped virus produced in 293S GnTI- cells (Man5-enriched) (HIV-1 clade C strain 426c); assay: cell-based or functional assay
[22] = biological target: CH0505TF.G458Y Env, Env-pseudotyped virus produced in 293T cells (HIV-1); assay: cell-based or functional assay
[23] = biological target: CH0505TF Env, pseudotyped virus produced in 293S GnTI- cells (HIV-1); assay: cell-based or functional assay
[24] = biological target: CH0505TF.gly3.461 Env, pseudotyped virus produced in 293S GnTI- cells (HIV-1); assay: cell-based or functional assay
[25] = biological target: HIV-1 Env 426c.TM (N276D.N460D.N463D), Env-pseudotyped virus produced in 293S GnTI- cells (Man5-enriched) (HIV-1 clade C strain 426c); assay: cell-based or functional assay
[26] = biological target: HIV-1 426c.SM (N276D) Env on Env-pseudotyped virus produced in 293T cells (HIV-1); assay: cell-based or functional assay
[27] = biological target: CH0505.w4.3 Env, Env-pseudotyped virus produced in 293T cells (HIV-1); assay: cell-based or functional assay
[28] = biological target: HIV-1 Env 426c.SM (N276D), Env-pseudotyped virus produced in 293S GnTI- cells (Man5-enriched) (HIV-1 clade C strain 426c); assay: cell-based or functional assay
[29] = biological target: HIV-1 Env 426c.TM (N276D.N460D.N463D), Env-pseudotyped virus produced in 293T cells (HIV-1 clade C strain 426c); assay: cell-based or functional assay
[30] = biological target: CH0505TF.G458Y Env, pseudotyped virus produced in 293S GnTI- cells (HIV-1); assay: cell-based or functional assay
[31] = biological target: HIV-1 clade C strain 426c Env on Env-pseudotyped virus produced in 293T cells (HIV-1); assay: cell-based or functional assay
[32] = biological target: HIV-1 426c.TM (N276D/N460D/N463D) Env on Env-pseudotyped virus produced in 293T cells (HIV-1); assay: cell-based or functional assay
[33] = biological target: HIV-1 clade C strain 426c Env on Env-pseudotyped virus produced in 293s/GnTI-/- cells (Man5-enrichment) (HIV-1); assay: cell-based or functional assay
[34] = biological target: HIV-1 426c.DM (N460D/N463D) Env on Env-pseudotyped virus produced in 293s/GnTI-/- cells (Man5-enrichment) (HIV-1); assay: cell-based or functional assay
[35] = biological target: HIV-1 Env 426c, Env-pseudotyped virus produced in 293T cells (HIV-1 clade C strain 426c); assay: cell-based or functional assay
[36] = biological target: HIV-1 426c.DM (N460D/N463D) Env on Env-pseudotyped virus produced in 293T cells (HIV-1); assay: cell-based or functional assay
[37] = biological target: CH0505TF.gly3.461 Env, Env-pseudotyped virus produced in 293S GnTI- cells (Man5-enriched) (HIV-1); assay: cell-based or functional assay
[38] = biological target: CH0505TF.gly4 Env, Env-pseudotyped virus produced in 293S GnTI- cells (Man5-enriched) (HIV-1); assay: cell-based or functional assay
[39] = biological target: CH0505TF Env, Env-pseudotyped virus produced in 293S GnTI- cells (Man5-enriched) (HIV-1); assay: cell-based or functional assay
[40] = biological target: CH0505TF.gly3.197 Env, Env-pseudotyped virus produced in 293S GnTI- cells (Man5-enriched) (HIV-1); assay: cell-based or functional assay
[41] = biological target: CH0505TF.G458Y Env, Env-pseudotyped virus produced in 293S GnTI- cells (Man5-enriched) (HIV-1); assay: cell-based or functional assay
[42] = biological target: CH0505TF.gly3.276 Env, Env-pseudotyped virus produced in 293S GnTI- cells (Man5-enriched) (HIV-1); assay: cell-based or functional assay

Row | Substance | IC50 (µg/ml) in TZM-bl [7] | IC50 (µg/ml) in TZM-bl [8] | IC50 (µg/ml) in TZM-bl [9] | IC50 (µg/ml) in TZM-bl [10] | IC50 (µg/ml) in TZM-bl [11] | ID50/IC50 in TZM-bl [12] | IC50 (µg/ml) in TZM-bl [14] | IC50 (µg/ml) in TZM-bl [15] | IC50 (µg/ml) in TZM-bl [16] | IC50 (µg/ml) in TZM-bl [18] | IC50 (µg/ml) in TZM-bl [19] | ID50/IC50 in TZM-bl [20] | IC50 (µg/ml) in TZM-bl [21] | IC50 (µg/ml) in TZM-bl [22] | IC50 (µg/ml) in TZM-bl [25] | ID50/IC50 in TZM-bl [26] | IC50 (µg/ml) in TZM-bl [27] | IC50 (µg/ml) in TZM-bl [28] | IC50 (µg/ml) in TZM-bl [29] | ID50/IC50 in TZM-bl [31] | further results
1 | CH103 lineage intermediate ancestor IA8 (antibody) |  |  |  |  |  |  |  |  |  |  |  |  |  |  |  |  |  |  |  |  | log AUC [1]: 0.6 log AUC; log AUC [2]: 6.2 log AUC; log AUC [3]: 3.4 log AUC; log AUC [4]: 5.5 log AUC; log AUC [5]: 1.6 log AUC
2 | IgG1b12 (antibody) | 0.011 µg/mL | > 25 µg/mL | > 25 µg/mL | 0.68 µg/mL | 0.007 µg/mL | > 25 µg/mL | > 25 µg/mL | > 25 µg/mL | > 25 µg/mL | 0.004 µg/mL | 0.98 µg/mL | > 25 µg/mL | > 25 µg/mL | 0.1 µg/mL | > 25 µg/mL | > 25 µg/mL | < 0.02 µg/mL | > 25 µg/mL | > 25 µg/mL | > 25 µg/mL | IC50 (µg/ml) in TZM-bl [6]: 0.26 µg/mL; IC50 (µg/ml) in TZM-bl [13]: 0.001 µg/mL; IC50 (µg/ml) in TZM-bl [17]: 0.01 µg/mL; IC50 (µg/ml) in TZM-bl [23]: 0.61 µg/mL; IC50 (µg/ml) in TZM-bl [24]: 0.02 µg/mL; IC50 (µg/ml) in TZM-bl [30]: 0.22 µg/mL; ID50/IC50 in TZM-bl [32]: > 25 µg/mL; ID50/IC50 in TZM-bl [33]: > 25 µg/mL; ID50/IC50 in TZM-bl [34]: > 25 µg/mL; IC50 (µg/ml) in TZM-bl [35]: > 25 µg/mL; ID50/IC50 in TZM-bl [36]: > 25 µg/mL
3 | PGT121 (antibody) | > 5 µg/mL | > 5 µg/mL | 3.4 µg/mL | > 5 µg/mL | > 5 µg/mL | 4.2 µg/mL | > 5 µg/mL | > 5 µg/mL | > 5 µg/mL | > 5 µg/mL | > 5 µg/mL | 3.4 µg/mL | 2.5 µg/mL | > 5 µg/mL | 3.4 µg/mL | > 5 µg/mL | > 20 µg/mL | 4.2 µg/mL | > 5 µg/mL | > 5 µg/mL | IC50 (µg/ml) in TZM-bl [37]: > 5 µg/mL; IC50 (µg/ml) in TZM-bl [38]: > 5 µg/mL; IC50 (µg/ml) in TZM-bl [39]: > 5 µg/mL; IC50 (µg/ml) in TZM-bl [40]: > 5 µg/mL; IC50 (µg/ml) in TZM-bl [41]: > 5 µg/mL; IC50 (µg/ml) in TZM-bl [42]: > 5 µg/mL; ID50/IC50 in TZM-bl [32]: > 5 µg/mL; ID50/IC50 in TZM-bl [33]: 2.5 µg/mL; ID50/IC50 in TZM-bl [34]: 3.4 µg/mL; IC50 (µg/ml) in TZM-bl [35]: > 5 µg/mL; ID50/IC50 in TZM-bl [36]: > 5 µg/mL
4 | PGT128 (antibody) | > 5 µg/mL | > 5 µg/mL | > 5 µg/mL | > 5 µg/mL | > 5 µg/mL | > 5 µg/mL | > 5 µg/mL | > 5 µg/mL | > 5 µg/mL | > 5 µg/mL | > 5 µg/mL | > 5 µg/mL | 4.3 µg/mL | > 5 µg/mL | > 5 µg/mL | > 5 µg/mL | > 10 µg/mL | > 5 µg/mL | > 5 µg/mL | > 5 µg/mL | IC50 (µg/ml) in TZM-bl [37]: > 5 µg/mL; IC50 (µg/ml) in TZM-bl [38]: > 5 µg/mL; IC50 (µg/ml) in TZM-bl [39]: > 5 µg/mL; IC50 (µg/ml) in TZM-bl [40]: > 5 µg/mL; IC50 (µg/ml) in TZM-bl [41]: > 5 µg/mL; IC50 (µg/ml) in TZM-bl [42]: > 5 µg/mL; ID50/IC50 in TZM-bl [32]: > 5 µg/mL; ID50/IC50 in TZM-bl [33]: 4.3 µg/mL; ID50/IC50 in TZM-bl [34]: > 5 µg/mL; IC50 (µg/ml) in TZM-bl [35]: > 5 µg/mL; ID50/IC50 in TZM-bl [36]: > 5 µg/mL
5 | PGT151 (antibody) | 0.01 µg/mL | 0.01 µg/mL | 2.2 µg/mL | 0.01 µg/mL | 0.007 µg/mL | 1.9 µg/mL | 0.01 µg/mL | 0.01 µg/mL | 2.9 µg/mL | 0.01 µg/mL | 0.01 µg/mL | 2.5 µg/mL | 1.6 µg/mL | 0.01 µg/mL | 2.5 µg/mL | 0.01 µg/mL | > 25 µg/mL | 1.9 µg/mL | 0.01 µg/mL | 0.01 µg/mL | IC50 (µg/ml) in TZM-bl [37]: > 5 µg/mL; IC50 (µg/ml) in TZM-bl [38]: 0.13 µg/mL; IC50 (µg/ml) in TZM-bl [39]: > 5 µg/mL; IC50 (µg/ml) in TZM-bl [40]: > 5 µg/mL; IC50 (µg/ml) in TZM-bl [41]: > 5 µg/mL; IC50 (µg/ml) in TZM-bl [42]: > 5 µg/mL; ID50/IC50 in TZM-bl [32]: 0.01 µg/mL; ID50/IC50 in TZM-bl [33]: 1.6 µg/mL; ID50/IC50 in TZM-bl [34]: 2.2 µg/mL; IC50 (µg/ml) in TZM-bl [35]: 0.01 µg/mL; ID50/IC50 in TZM-bl [36]: 0.01 µg/mL
